The nanobody polyreactivity screen of Harvey et al. (2022)

assay: yeast display, Sf9 membrane polyspecificity reagent, FACS + sequencing; frameworks hold sequencing errors
Method in brief: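 Polyreactivity labels are assigned by the sorting gate from which each nanobody was recovered. The gates were low and high (top ~1%), set on anti-HA fluorescence for expression and streptavidin fluorescence for reagent binding. Before sorting, galactose-induced (36–48 hours) yeast display cells were stained for 1 hour at 4 °C with 10% biotinylated, detergent-solubilized Sf9 membrane reagent.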

Sequence | polyreactivity (PSR sort gate)
QVQLVESGGGLVQAGGSLRLSCAASGRIFAYNTMGWYRQAPRKERELVAVITSGGATNYADSVKGRFTISRDNAKNTVYLQMNSLKPEDTAVYYCAKRPYGRSGGSRYDYWGQGTQVTVSS | high polyreactivity
QVQLVESGGGLVQAGGSLRLSCAASGRIFAYYAMGWYRQAPGKERELVAAINRSGVRTYYADSVKGRFTISRDNAKNTVYLQMNSLKPEDTAVYYCAAPGQHSWGQGTQVTVSS | high polyreactivity
QVQLVESGGGLVQAGGSLRLSCAASGRIFAYYAMGWYRQAPGKERELVAAISRSGGSTYYADSVKGRFTISRDNAKNTVYLLMNSLKPEDTAVYYCNVVRVRYYWWEFDYWGQGTQVTVSS | high polyreactivity
QVQLVESGGGLVQAGGSLRLSCAASGRIFAYYAMGWYRQAPGKERELVAAISRSGVSTYYADSVKGRFTISRDNAKNTVYLQMNSLKPEDTAVYYCDARWRSGFTSVDYWGQGTQVTVSS | low polyreactivity
QVQLVESGGGLVQAGGSLRLSCAASGRIFAYYAMGWYRQAPGKERELVATINYSGTSTYYADSVKGRFTISRDNAKNTVYLQMNSLKPEDTAFYYCAADLTSRLLWYHIERFDYWGQGTQVTVSS | high polyreactivity
QVQLVESGGGLVQAGGSLRLSCAASGRIFAYYAMGWYRQAPGKERELVATISTGGGTYYADSVKGRFSISRDNAKNTVYLQMNSLKPEDTAVYYCAAAPYWYYGYYYWGQGTQVTVSS | high polyreactivity
QVQLVESGGGLVQAGGSLRLSCAASGRIFAYYAMGWYRQAPGKERELVAVISKSGGSTNYADSVKGRFTISRDYAKNTVYLQMNSLKPEDTAVYYCAKRAYDPEMYYWGQGTQVTVSS | low polyreactivity
QVQLVESGGGLVQAGGSLRLSCAASGRIFAYYAMGWYRQAPGKEREMVAAISRSGGSTYYADSVKGRFPISRDNAKNTVYLQMNSLKPEDTAVYYCAASLKVPYATMNYWGQGTQVTVSS | high polyreactivity
QVQLVESGGGLVQAGGSLRLSCAASGRIFCGYAMGWYRQAPGKERELVAAITSGGRTYYADSVKGRFTISRDNAKNTVYLQMNSLKPEDTAVYYCAAVYVPYYWLGRSRGLDYWGQGTQVTVSS | high polyreactivity
QVQLVESGGGLVQAGGSLRLSCAASGRIFDDYAMGWNRQAPGKERELVAAISSSVGNTYYADSVKGRFTISRDNAKYTVYLQMNSLKPEDTAVYYCADYSYVRSSYEVEYDYWGQATQVTVSS | low polyreactivity
QVQLVESGGGLVQAGGSLRLSCAASGRIFDFNAMGWYRQAPGKEREFVAAIRTSGGDSTYYADSVKGRFTISRDNAKNTVYLQMNSLKPEDTAVYYCAKTVWWYYRYPFDYWGQGTQVTVSS | low polyreactivity
QVQLVESGGGLVQAGGSLRLSCAASGRIFDFNAMGWYRQAPGKEREFVAAIRTSGGDSTYYADSVKGRFTISRDNEKNTVYLQMNSLKPEDTAVYYCAKTVWWYYRYPFDYWGQGTQVTVSS | low polyreactivity
QVQLVESGGGLVQAGGSLRLSCAASGRIFDGYAMGWYRQAPGKERELVAAISSRGGRTYYADSVKGRFTISRDNAKNTVYLQMNSLKPEDTAVYYCAADDPYGEGDYWGQGTQVTVSS | low polyreactivity
QVQLVESGGGLVQAGGSLRLSCAASGRIFDHYAMGSYRQAPGKERELVAAISGGGDSTYYAYSVKGRFTISRDNAKNTVYLQMNSLKPEDTAVFYCAADFYVYWGNYAQDYYYWGQGTQVTVSS | high polyreactivity
QVQLVESGGGLVQAGGSLRLSCAASGRIFDIYAMGWYRPAPRKERELVAAITRRGGTTYADSVKGRFTISRDNAKNTVYLQMNSLKPEVNAVYYCAAGLYFRKWYSWTRYEYWGQGTQVTVSS | high polyreactivity
QVQLVESGGGLVQAGGSLRLSCAASGRIFDIYTMGWYRQAPGNERELVASITKRGGSTYYADSVKGRFTISRDNAKNTVYLQMNSLKPEDTAVYYCNVAGKQKPYYVTTRLDYWGQGTQVTVSS | high polyreactivity
QVQLVESGGGLVQAGGSLRLSCAASGRIFDLNAMGWYRQAPGKERELVAVITGSGGSTYYADSVKGRFTISRDNAKNTVYLQMNSLKPEDTAVYYCNAYTQQYRSYGYWGQGTQVTVSS | low polyreactivity
QVQLVESGGGLVQAGGSLRLSCAASGRIFDLYTMGWYRQAPGKERELVAAIRWSDGSTYYADSVTGRFTISRDNAKNTVYLQMNSLKPEDTAVYYCAADTRTSYYNDDYDYWGQGTQVTVSS | low polyreactivity
QVQLVESGGGLVQAGGSLRLSCAASGRIFDLYTMGWYRQAPGKERELVAAITSSGDSTYYADSVKGRFTISRDNAKNTVYLQMNSLKPEDTAVYYCAAESKYWEPWWYYYYDMDYWGQGTQVTVSS | low polyreactivity
QVQLVESGGGLVQAGGSLRLSCAASGRIFDNYAMGWYRQAPGKERELVAAITYIDSGTYYADSVKGRFTISRDNAKNTVYLQMNSLKPEDTAVYYCAVRLNSDSKRKTQKFGYWGQGTQVTVSS | low polyreactivity
QVQLVESGGGLVQAGGSLRLSCAASGRIFDNYAMGWYRQAPGKERELVAAITYIDSGTYYADSVKGRFTISRDNAKNTVYLQMNSLKPEDTAVYYCAVRLNSDSKRKTQKYGYWGQGTQVTVSS | low polyreactivity
QVQLVESGGGLVQAGGSLRLSCAASGRIFDPNAMGWYRQAPGKERELVARIRWWSDGSTYYADSVKGRFTISRDNAKNTVYLQMNSLKPEDTAVYYCATTANRVYGYAPWFGPRSEYWGQGTQVTVSS | high polyreactivity

Sequence | polyreactivity (PSR sort gate)
QVQLVESGGGLVQAGGSLRLSCAASGRIFDRNAMGWSRQAPGKERELVAAITRSGGRTYYADSVKGRFTISRDNAKYTVYLQMNSLKPEDTAVYYCNRGYPRSVVHYNSWGQGTQVTVSS | high polyreactivity
QVQLVESGGGLVQAGGSLRLSCAASGRIFDRYAMGWYRLAPGKERELVAAITTSSGGSTYYADSVKGRFTISRDNAMNTVYLQMQSLNPEDTAVYYCAADRRYNVIGEFGYWGQVTQVTVSS | low polyreactivity
QVQLVESGGGLVQAGGSLRLSCAASGRIFDRYVMGWYRQAPVKERALVAAISDGGSTYYADSVKGRFTISRDNAKNTVYLQMISLKPEDTAVYYCNAAFYPNENYYLIYDYWGQGTQVTVSS | low polyreactivity
QVQLVESGGGLVQAGGSLRLSCAASGRIFDSNAMGWYRQAPGKERELVATISYRGGRTYYADSVKGRFTISRDNAKNTVYLQMNSLKPEDTAVYYCAVRYWVSGFRAGYYWGQGTQVTVSS | high polyreactivity
QVQLVESGGGLVQAGGSLRLSCAASGRIFDTYAMGWDRPAPRKERELVAAINSGGRTYYADSVKGRFTISRDNAKNTVYVQMNSLKPEDTAVYYCAAYITYSYGRYGSWGQGTQVTVSS | high polyreactivity
QVQLVESGGGLVQAGGSLRLSCAASGRIFDTYAMGWYRQAPGKERELVAAITRRGGSTYYADSVKGRFTISRDNAKNTVYLQMNSLKPEDSAVYYCAKSLVNRHYDYWGQGTQVTVSS | low polyreactivity
QVQLVESGGGLVQAGGSLRLSCAASGRIFDVNDMGCYRQAPGKERELVAAITYSGTDTYYADSVKGRITISRDNAKNTVYLQMNSLKPEDTAVYYCAAEFTGWEYIGRDYWGQGTQVTVSS | low polyreactivity
QVQLVESGGGLVQAGGSLRLSCAASGRIFDYNAMGWYRQAPGKERELVAAINSGGSTYADSVKGRFTISRDNAKNTVYLQMNSLKPEDTAVYYCAKSLGQTDWEYDSWGQGTQVTVSS | low polyreactivity
QVQLVESGGGLVQAGGSLRLSCAASGRIFDYNAMGWYRQAPGKERELVAAITKDDGSTYYADSVKGRFTISRDNAKNTVYLQMNSLKPEDTAVYYCAAEFYWTYVDIWYDYWGQGTQVTVSS | low polyreactivity
QVQLVESGGGLVQAGGSLRLSCAASGRIFDYNTMGWSRQAPGKERELVAAITGGTGSTYYADSVKGRFTISRDNAKNTVYLQMNSLKPEDTAVYYCAAGFHKRVTPEILYDYWGQGTQVTVSS | low polyreactivity
QVQLVESGGGLVQAGGSLRLSCAASGRIFDYYAMGWYRQAPGKERELVAAINRGGNTYYADSVKGRFTISRDNAKNTVYLQMNSLKPEETSVYYCNAQWYYLRYRYDYWGQGTQVTVSS | high polyreactivity
QVQLVESGGGLVQAGGSLRLSCAASGRIFDYYAMGWYRQAPGKERELVASISRSGGSTYYADSVKGRFTISRDNAKNTVYLQMNSLKPEDTAVYYCAARRGYYYGRVGYWGQGTQVTVSS | high polyreactivity
QVQLVESGGGLVQAGGSLRLSCAASGRIFDYYTMGGYRQAPGKETELVAAINWSGGSTYYADSVKGRFTISRDNAKNTVYLQMNSLKPEDTAVYYCATLSYGREYGYWGQGTQVTVSS | low polyreactivity
QVQLVESGGGLVQAGGSLRLSCAASGRIFDYYTMGWYRQAPGKERELVAAITWIGGSTYYADSVKGRFTISRDNAKNTVYLQMKSLKPEETAVYYCYAEGTALPYRADTVGGYYYWGQGTQVTVSS | low polyreactivity
QVQLVESGGGLVQAGGSLRLSCAASGRIFEHNAMGWYRQAPGKEREFVAAISSSGGSTYYADSVKGRFTISRDNAKNTVYLQMNSLKPEDTAVYYCNAGSTYYERNYWGQGTQVTVSS | low polyreactivity
QVQLVESGGGLVQAGGSLRLSCAASGRIFEHNTMGWYRQAPGKERELVAAINWRGGSTYYADSVKGRFTISRYNAKNTVYLQMNSLKPEDTAVYYCNKYWWSYSYASGYNYWGQGTQVTVSS | high polyreactivity
QVQLVESGGGLVQAGGSLRLSCAASGRIFEHYAMGWYRQAPGKERELVAAITSSGDSTYYADSVKGRFTISRDNAKNTVYLQMNSLKPEDTAVYYCNAVAYISYLWGYYLSTPYDYWGQGTQVTVSS | high polyreactivity
QVQLVESGGGLVQAGGSLRLSCAASGRIFEHYAMGWYRQAPGKERELVASISSGDRTNYADSVKGRFTISRDNAKNTVYLQMNSLKPEDTAVYYCNALQLYGKGKRVGFGYWGQGTQVTVSS | low polyreactivity
QVQLVESGGGLVQAGGSLRLSCAASGRIFENDMGWYRQAPGKERELVATIRSDGSTNYADSVKGRFTISRDNAKNTVYLQMNSLKPEDTAVYYCAADYLGPDYFFFSNYPYDYWGQGTQVTVSS | low polyreactivity
QVQLVESGGGLVQAGGSLRLSCAASGRIFEPYTMGWYRQAPGKEREFVATITASGDSTYYADSVKGRFTISRDNAKNTVYLQMNSLKPEDTAVYYCAAAPFGGYEYDYWGQGTQVTVSS | high polyreactivity
QVQLVESGGGLVQAGGSLRLSCAASGRIFERNAMGWYRQAPGKERELVAAITYNGGRTYYADSVKGRFTISRDNAKNTVYLQMNSLKPEDTAVYYCNAQSRVTRSSYRGSPRYDYWGQGTQVTVSS | low polyreactivity
